For assay [1], the target named is tetranectin (TN) of murine lung tissue (Mus musculus (lung tissue lysate), UniProt P43025). Briefly: Western blot. The note with it: one partner purified. On the technique in general: In western blotting, separated proteins are transferred to a membrane and probed.
The target in assay [2] is recombinant receptor‐binding motif (RBM) of SARS‐CoV‐2 spike (S) protein, residue 437–508 (SARS-CoV-2, UniProt P0DTC2). Description: SPR. The note with it: both partners purified.

Chain of tetranectin (TN) of murine lung tissue (P43025 22-202): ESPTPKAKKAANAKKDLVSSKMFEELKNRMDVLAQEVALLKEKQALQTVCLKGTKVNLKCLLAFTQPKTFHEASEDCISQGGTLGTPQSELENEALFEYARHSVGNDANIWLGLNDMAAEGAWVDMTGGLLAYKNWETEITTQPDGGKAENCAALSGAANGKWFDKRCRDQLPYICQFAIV

B1: mAb8 (antibody, V domains shown)
VH: DVKLVESGGGLVKLGGSLKLSCAASGFTFSTDYMSWVRQSPEKRLELVAAINSNGGTTYYPDTVKGRFIISRDNAKNTLYLQMSSLRSEDTALYYCARQVKNGLDYWGQGTSVTVSS
VL: DIQMTQTTSSLSASLGDRVTISCRASQDISNYLNWYQQKPDGTVKLLIYKTSRLHSGVPSRFRGSGSGTDYSLTISNLEEEDVATYFCQQGNTLPPTFGGGTKLEIK
Usually Kd stands for the concentration at which binding is half-saturated. B1: the binding result in assay [1] was “binds”. Besides, the dissociation constant (Kd) in assay [2] stood at 0.0174 µM.

B2: mAb2 (antibody, V domains shown)
VH: DVKLVESGGGLVNLGGSLKLSCAASGFTFSSDYMSWVRQIPEKRLELVAAINSNGGTTYYPDTVKGRFTISRDNAKNTLYLQMSSLKSEDTALYYCARQGKNGMDYWGQGTSVTVSS
VL: DIQMTQTTSSLSASLGDRVTISCRASQDISNHLNWYQQRPDGTVKLLIYYTSRLHSGVPSRFSGSGSGTDYSFTITNLDQEDIATYFCQQGKTLPPTFGGGTKLEIK
Regarding B2, the binding result in assay [1] is “binds”. For the same molecule, the dissociation constant Kd in assay [2] was 0.0628 µM.

(Values after article PMC8251270 (Journal of Leukocyte Biology, 2021).)
